In IntAct's records for PubMed 29039417:

B1: Protein PTHB1 (Homo sapiens), Q3SYG4 (parent)
chain: MSLFKARDWWSTILGDKEEFDQGCLCLANVDNSGNGQDKIIVGSFMGYLRIFSPHPAKTGDGAQAEDLLLEVDLRDPVLQVEVGKFVSGTEMLHLAVLHSRKLCVYSVSGTLGNVEHGNQCQMKLMYEHNLQRTACNMTYGSFGGVKGRDLICIQSMDGMLMVFEQESYAFGRFLPGFLLPGPLAYSSRTDSFLTVSSCQQVESYKYQVLAFATDADKRQETEQQKLGSGKRLVVDWTLNIGEQALDICIVSFNQSASSVFVLGERNFFCLKDNGQIRFMKKLDWSPSCFLPYCSVSEGTINTLIGNHNNMLHIYQDVTLKWATQLPHIPVAVRVGCLHDLKGVIVTLSDDGHLQCSYLGTDPSLFQAPNVQSRELNYDELDVEMKELQKIIKDVNKSQGVWPMTEREDDLNVSVVVSPNFDSVSQATDVEVGTDLVPSVTVKVTLQNRVILQKAKLSVYVQPPLELTCDQFTFEFMTPDLTRTVSFSVYLKRSYTPSELEGNAVVSYSRPTDRNPDGIPRVIQCKFRLPLKLICLPGQPSKTASHKITIDTNKSPVSLLSLFPGFASQSDDDQVNVMGFHFLGGARITVLASKTSQRYRIQSEQFEDLWLITNELILRLQEYFEKQGVKDFACSFSGSIPLQEYFELIDHHFELRINGEKLEELLSERAVQFRAIQRRLLARFKDKTPAPLQHLDTLLDGTYKQVIALADAVEENQGNLFQSFTRLKSATHLVILLIALWQKLSADQVAILEAAFLPLQEDTQELGWEETVDAAISHLLKTCLSKSSKEQALNLNSQLNIPKDTSQLKKHITLLCDRLSKGGRLCLSTDAAAPQTMVMPGGCTTIPESDLEERSVEQDSTELFTNHRHLTAETPRPEVSPLQGVSE
partner: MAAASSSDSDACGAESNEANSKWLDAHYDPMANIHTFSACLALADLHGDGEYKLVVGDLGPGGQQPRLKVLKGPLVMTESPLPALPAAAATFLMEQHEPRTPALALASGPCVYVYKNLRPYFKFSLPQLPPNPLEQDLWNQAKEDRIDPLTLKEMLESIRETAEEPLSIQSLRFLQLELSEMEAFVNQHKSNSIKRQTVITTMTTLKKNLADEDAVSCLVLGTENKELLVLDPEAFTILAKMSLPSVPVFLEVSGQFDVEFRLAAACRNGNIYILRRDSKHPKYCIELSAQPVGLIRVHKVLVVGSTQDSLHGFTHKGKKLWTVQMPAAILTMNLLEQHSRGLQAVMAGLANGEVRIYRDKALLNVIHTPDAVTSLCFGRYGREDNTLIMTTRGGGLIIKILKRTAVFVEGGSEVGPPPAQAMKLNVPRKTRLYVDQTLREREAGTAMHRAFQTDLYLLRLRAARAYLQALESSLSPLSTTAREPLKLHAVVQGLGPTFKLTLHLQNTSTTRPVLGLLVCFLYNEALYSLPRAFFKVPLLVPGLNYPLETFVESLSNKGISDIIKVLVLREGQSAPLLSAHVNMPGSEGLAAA

Variants of: B1
Conditions: with bbs1_human BBS1, Q8NFJ9

| effect of a mutation on the interaction | Variant |
| --- | --- |
| with no effect | T782E |
| with no effect | T782A |
| with no effect | P834K |
| with no effect | K810A |
| with no effect | I738E |
| with no effect | H732E |
| with no effect | D804E |
| with no effect | V734K |
| with no effect | A739K |
| with no effect | S788K |
| with no effect | N796K |
| with no effect | E857K |
| with no effect | V879K |
| with no effect | L863K |
| with no effect | A833K |
| with no effect | P840A |
| with no effect | N866K |
| with no effect | N866E |
| with no effect | Q798A |

| effect of a mutation on the interaction | Variant |
| --- | --- |
| with no effect | H811A |
| with no effect | H811E |
| with no effect | C816E |
| with no effect | P877A |
| with no effect | Q883E |
| with no effect | P802E |
| with no effect | S820K |
| with no effect | S777E |
| with no effect | Q858K |
| with no effect | E878K |
| with no effect | L779K |
| with no effect | E862K |
| with no effect | E862A |
| with no effect | I776K |
| with no effect | L740K |
| with no effect | M839K |
| with no effect | L784A |
| with no effect | L851A |
| with no effect | T836A |

| effect of a mutation on the interaction | Variant |
| --- | --- |
| with no effect | T874E |
| with no effect | G822A |
| with no effect | I801E |
| with no effect | I846E |
| with no effect | A872K |
| with no effect | Q791E |
| with no effect | P847A |
| with no effect | V885K |
| with no effect | L780E |
| disrupting interaction strength | E770K |
| with no effect | T865A |
| with no effect | L814A |
| with no effect | A832K |
| with no effect | A754E |
| with no effect | S797E |
| with no effect | S797A |
| with no effect | S745A |
| with no effect | S745K |
| disrupting interaction strength | G841E |

Second part, the variant before the results:

| Variant | effect of a mutation on the interaction |
| --- | --- |
| K454E | with no effect |
| S488A | with no effect |
| L648K | with no effect |
| R528E | with no effect |
| T473E | with no effect |
| K456A | with no effect |
| R514E | with no effect |
| I707K | with no effect |
| Q722K | with no effect |
| T482E | with no effect |
| R669E | with no effect |
| R669K | with no effect |
| E431A | with no effect |
| K626A | with no effect |
| D696E | with no effect |
| G585K | with no effect |
| F673E | with no effect |
| R587T | disrupting interaction strength |
| R587E | with no effect |
| R587A | with no effect |
| T484A | with no effect |
| Y623K | with no effect |
| P540A | with no effect |
| V706E | with no effect |
| V706A | with no effect |

| Variant | effect of a mutation on the interaction |
| --- | --- |
| L666E | with no effect |
| S568K | with no effect |
| F474E | with no effect |
| F684K | with no effect |
| F684A | with no effect |
| G701K | with no effect |
| R483E | with no effect |
| Q717A | with no effect |
| Q717E | with no effect |
| T589K | with no effect |
| S729K | with no effect |
| V459E | disrupting interaction strength |
| T543E | with no effect |
| Q471A | with no effect |
| T702K | with no effect |
| P511K | with no effect |
| F563K | with no effect |
| F563A | with no effect |
| D711E | with no effect |
| S414A | with no effect |
| V430E | with no effect |
| D631K | with no effect |
| R407K | with no effect |
| R407A | with no effect |
| L620E | with no effect |

| Variant | effect of a mutation on the interaction |
| --- | --- |
| S570A | with no effect |
| L457E | with no effect |
| M477K | with no effect |
| I519E | with no effect |
| L562F | disrupting interaction strength |
| V577E | with no effect |
| V415E | with no effect |
| T613K | with no effect |
| T613I | disrupting interaction strength |
| K526A | with no effect |
| S425K | with no effect |
| D513E | with no effect |
| T595E | with no effect |
| D551E | with no effect |
| T731K | with no effect |
| Y599A | with no effect |
| K687A | with no effect |
| E604A | with no effect |
| L609A | with no effect |
| L609K | with no effect |
| N553E | with no effect |
| S545A | with no effect |
| L591A | with no effect |
| K594A | with no effect |
| V416A | with no effect |

| Variant | effect of a mutation on the interaction |
| --- | --- |
| V416E | with no effect |
| I649E | with no effect |
| C535E | with no effect |
| G584E | with no effect |
| G584A | with no effect |
| F636K | with no effect |
| L583E | with no effect |
| P689K | with no effect |
| P516E | with no effect |
| N420K | with no effect |
| I534E | with no effect |
| E615K | with no effect |
| Y508E | with no effect |
| F476K | with no effect |
| K661E | with no effect |
| I640K | with no effect |
| L618K | with no effect |
| F646K | with no effect |
| Q426K | with no effect |
| S423E | with no effect |
| R598S | disrupting interaction strength |
| E654K | with no effect |
| Q621E | with no effect |
| T697A | with no effect |
| R656A | with no effect |

| Variant | effect of a mutation on the interaction |
| --- | --- |
| K630E | with no effect |
| R678A | with no effect |
| R678K | with no effect |
| H694E | with no effect |
| E501K | with no effect |
| L681E | with no effect |
| L681K | with no effect |
| G628E | with no effect |
| I451A | with no effect |
| V437A | with no effect |
| N515K | with no effect |
| R619K | with no effect |
| L695M | disrupting interaction strength |
| R679W | disrupting interaction strength |
| L481K | with no effect |
| L481A | with no effect |
| T478E | with no effect |
| E715K | with no effect |
| Q462T | disrupting interaction strength |
| V444K | with no effect |
| R600E | with no effect |
| V485K | with no effect |
| T688K | disrupting interaction strength |
| N658A | with no effect |
| A504E | with no effect |
